Assay results: patent US7294706
Numbering of substitutions follows the chain as printed. In names and notes the source's numbering stands. Blank lines part the entries; values can stand above or below the binder they belong to.

Legend:
[1] = molecular target: FGFR2 over-expressed on CHO cells (CHO-FGFR2) and on 32D cells (32D-FGFR2) (UniProt P21803); experiment: cell-based or functional assay
[2] = molecular target: FGFR2 over-expressed on CHO cells (CHO-FGFR2) and on 32D cells (32D-FGFR2) (UniProt P21803); experiment: competition of unlabeled protein with 125I-FGF4 (Gly79-Leu206) for CHO-FGFR2 cells, +heparin

B2: FGF4 (Gly79-Leu206) H201A (ligand)
chain: GIKRLRRLYCNVGIGFHLQALPDGRIGGAHADTRDSLLELSPVERGVVSIFGVASRFFVAMSSKGKLYGSPFFTDECTFKEILLPNNYNAYESYKYPGMFIALGKNGKTKKGNRVSPTMKVTAFLPRL
IC50 mutant/IC50 wild-type (ratio (IC50 mutant/IC50 wild-type)) [2]: > 1000

B3: FGF4 (Gly79-Leu206) L162A (ligand)
chain: B2 chain with L84A, A123H
IC50 mutant/IC50 wild-type (ratio (IC50 mutant/IC50 wild-type)) [2]: > 1000

B4: FGF4 (Gly79-Leu206) E117A (ligand)
chain: B2 chain with E39A, A123H
IC50 mutant/IC50 wild-type (ratio (IC50 mutant/IC50 wild-type)) [2]: 7

B5: FGF4 (Gly79-Leu206) F129A (ligand)
chain: B2 chain with F51A, A123H
DNA Synthesis NIH 3T3 cells (ED50 mutant/ED50 wild-type), +heparin (ratio ED50 mutant/ED50 wild-type) [1]: > 500 | DNA Synthesis NIH 3T3 cells (ED50 mutant/ED50 wild-type), -heparin (ratio ED50 mutant/ED50 wild-type) [1]: > 500 | IC50 mutant/IC50 wild-type (ratio (IC50 mutant/IC50 wild-type)) [2]: > 100

B8: FGF4 (Gly79-Leu206) E159A (ligand)
chain: B2 chain with E81A, A123H
IC50 mutant/IC50 wild-type (ratio (IC50 mutant/IC50 wild-type)) [2]: 5

B10: FGF4 (Gly79-Leu206) F151A (ligand)
chain: B2 chain with F73A, A123H
IC50 mutant/IC50 wild-type (ratio (IC50 mutant/IC50 wild-type)) [2]: 2.5

Now from value to binder:

DNA Synthesis NIH 3T3 cells (ED50 mutant/ED50 wild-type), +heparin (ratio ED50 mutant/ED50 wild-type) [1]: 500 | DNA Synthesis NIH 3T3 cells (ED50 mutant/ED50 wild-type), -heparin (ratio ED50 mutant/ED50 wild-type) [1]: > 500 | IC50 mutant/IC50 wild-type (ratio (IC50 mutant/IC50 wild-type)) [2]: > 100
B1: FGF4 (Gly79-Leu206) Y87A (ligand)
chain: B2 chain with Y9A, A123H

DNA Synthesis NIH 3T3 cells (ED50 mutant/ED50 wild-type), +heparin (ratio ED50 mutant/ED50 wild-type) [1]: > 500 | DNA Synthesis NIH 3T3 cells (ED50 mutant/ED50 wild-type), -heparin (ratio ED50 mutant/ED50 wild-type) [1]: > 500 | IC50 mutant/IC50 wild-type (ratio (IC50 mutant/IC50 wild-type)) [2]: > 100
B6: FGF4 (Gly79-Leu206) L203A (ligand)
chain: B2 chain with A123H, L125A

DNA Synthesis NIH 3T3 cells (ED50 mutant/ED50 wild-type), +heparin (ratio ED50 mutant/ED50 wild-type) [1]: 2.5 | DNA Synthesis NIH 3T3 cells (ED50 mutant/ED50 wild-type), -heparin (ratio ED50 mutant/ED50 wild-type) [1]: 25 | IC50 mutant/IC50 wild-type (ratio (IC50 mutant/IC50 wild-type)) [2]: 2.5
B7: FGF4 (Gly79-Leu206) R205A (ligand)
chain: B2 chain with A123H, R127A

IC50 mutant/IC50 wild-type (ratio (IC50 mutant/IC50 wild-type)) [2]: 1
B9: N-terminal truncated wild-type FGF4 (Gly79-Leu206) (ligand)
chain: B2 chain with A123H

DNA Synthesis NIH 3T3 cells (ED50 mutant/ED50 wild-type), +heparin (ratio ED50 mutant/ED50 wild-type) [1]: > 500 | DNA Synthesis NIH 3T3 cells (ED50 mutant/ED50 wild-type), -heparin (ratio ED50 mutant/ED50 wild-type) [1]: 500 | IC50 mutant/IC50 wild-type (ratio (IC50 mutant/IC50 wild-type)) [2]: > 100
B11: FGF4 (Gly79-Leu206) Y166A (ligand)
chain: B2 chain with Y88A, A123H
